According to patent publication US12559863B2, “Macrocyclic modulators of disease associated protein misfolding and aggregation” (RESQ BIOTECH, priority 2017, dated 2026):

Biological target: T1, Aβ42-GFP (Homo sapiens, UniProt P05067)
T1 construct: a chimeric fusion of the human Aβ(1-42) peptide (Aβ42) with GFP; expressed in transfected cells; host or cells: E. coli BL21(DE3)
Test: High-throughput sequencing of pSICLOPPS vectors isolated after bacterial sorting for enhanced Aβ42-GFP fluorescence
Settings: for Reads/Total TXXXR reads (%): relative to total TXXXR reads; for Normalized read number (%): Table 3, cyclo-TXXR tetrapeptides
Method in brief: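 Peptide inserts recovered from repeatedly sorted high-GFP clones were sequenced on Ion Torrent, excluding stop-codon-containing reads. Sorting used BL21(DE3) cells carrying pETAβ42-GFP plus the tetra-, penta- and hexapeptide pSICLOPPS library. Peptide production was induced with 0.002% L-arabinose and the reporter with 0.1 mM IPTG at OD600 ~0.5, at 37° C.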

[1] = after the second round of bacterial sorting for enhanced Aβ42-GFP fluorescence
[2] = after the second round of bacterial sorting for enhanced Aβ42-GFP fluorescence, relative to total pentapeptide reads
[3] = after the second round of bacterial sorting for enhanced Aβ42-GFP fluorescence, relative to total peptide reads
[4] = pSICLOPPS-NuX1X2X3-X5 vectors after the second round of bacterial sorting for enhanced Aβ42-GFP fluorescence
[5] = Table 4, hexapeptides, after second round of sorting
[6] = Table 2, after second round of sorting

Substance | Reads/Total hexapeptide reads (%) (Table 4) | Reads/Total peptide reads (%) (Table 4) | Number of reads [5] | other results
AβC5-450 (TRDVR; cyclic pentapeptide) | – | – | – | Reads/Total TXXXR reads (%) [1]: 0.003%; Reads/Total pentapeptide reads (%) [2]: 0.001%; Reads/Total peptide reads (%) [3]: 0.001%; Number of reads [4]: 58
AβC5-452 (THVDR; cyclic pentapeptide) | – | – | – | Reads/Total TXXXR reads (%) [1]: 0.003%; Reads/Total pentapeptide reads (%) [2]: 0.001%; Reads/Total peptide reads (%) [3]: 0.001%; Number of reads [4]: 58
AβC5-453 (TLFWR; cyclic pentapeptide) | – | – | – | Reads/Total TXXXR reads (%) [1]: 0.003%; Reads/Total pentapeptide reads (%) [2]: 0.001%; Reads/Total peptide reads (%) [3]: 0.001%; Number of reads [4]: 57
AβC5-459 (TTAAR; cyclic pentapeptide) | – | – | – | Reads/Total TXXXR reads (%) [1]: 0.003%; Reads/Total pentapeptide reads (%) [2]: 0.001%; Reads/Total peptide reads (%) [3]: 0.001%; Number of reads [4]: 55
AβC5-463 (TVVDR; cyclic pentapeptide) | – | – | – | Reads/Total TXXXR reads (%) [1]: 0.003%; Reads/Total pentapeptide reads (%) [2]: 0.001%; Reads/Total peptide reads (%) [3]: 0.001%; Number of reads [4]: 54
AβC5-464 (TTPAR; cyclic pentapeptide) | – | – | – | Reads/Total TXXXR reads (%) [1]: 0.003%; Reads/Total pentapeptide reads (%) [2]: 0.001%; Reads/Total peptide reads (%) [3]: 0.001%; Number of reads [4]: 54
AβC5-469 (TTIGR; cyclic pentapeptide) | – | – | – | Reads/Total TXXXR reads (%) [1]: 0.003%; Reads/Total pentapeptide reads (%) [2]: 0.001%; Reads/Total peptide reads (%) [3]: 0.001%; Number of reads [4]: 53
AβC5-472 (TMYAR; cyclic pentapeptide) | – | – | – | Reads/Total TXXXR reads (%) [1]: 0.003%; Reads/Total pentapeptide reads (%) [2]: 0.001%; Reads/Total peptide reads (%) [3]: 0.001%; Number of reads [4]: 51
AβC5-473 (THVAR; cyclic pentapeptide) | – | – | – | Reads/Total TXXXR reads (%) [1]: 0.003%; Reads/Total pentapeptide reads (%) [2]: 0.001%; Reads/Total peptide reads (%) [3]: 0.001%; Number of reads [4]: 51
AβC5-474 (TTWPR; cyclic pentapeptide) | – | – | – | Reads/Total TXXXR reads (%) [1]: 0.003%; Reads/Total pentapeptide reads (%) [2]: 0.001%; Reads/Total peptide reads (%) [3]: 0.001%; Number of reads [4]: 51
AβC5-475 (TTGDR; cyclic pentapeptide) | – | – | – | Reads/Total TXXXR reads (%) [1]: 0.003%; Reads/Total pentapeptide reads (%) [2]: 0.001%; Reads/Total peptide reads (%) [3]: 0.001%; Number of reads [4]: 51
AβC5-479 (TTTVR; cyclic pentapeptide) | – | – | – | Reads/Total TXXXR reads (%) [1]: 0.003%; Reads/Total pentapeptide reads (%) [2]: 0.001%; Reads/Total peptide reads (%) [3]: 0.001%; Number of reads [4]: 50
AβC5-481 (TVFGR; cyclic pentapeptide) | – | – | – | Reads/Total TXXXR reads (%) [1]: 0.003%; Reads/Total pentapeptide reads (%) [2]: 0.001%; Reads/Total peptide reads (%) [3]: 0.001%; Number of reads [4]: 50
AβC5-483 (TRVGR; cyclic pentapeptide) | – | – | – | Reads/Total TXXXR reads (%) [1]: 0.003%; Reads/Total pentapeptide reads (%) [2]: 0.001%; Reads/Total peptide reads (%) [3]: 0.001%; Number of reads [4]: 50
TCSWFD [AβC6-27] | 0.138% | 0.014% | 623 | –
TIFWFD [AβC6-50] | 0.050% | 0.005% | 227 | –
TKEYFD [AβC6-21] | 0.272% | 0.027% | 1,231 | –
TLCWLN [AβC6-32] | 0.101% | 0.010% | 455 | –
TLDFFD [AβC6-63] | 0.025% | 0.003% | 114 | –
TLEFFD [AβC6-4] | 5.978% | 0.597% | 27,057 | –
TLEYFM [AβC6-28] | 0.123% | 0.012% | 556 | –

Substance | Reads/Total hexapeptide reads (%) (Table 4) | Reads/Total peptide reads (%) (Table 4) | Number of reads [5] | other results
TLEYLW [AβC6-49] | 0.051% | 0.005% | 233 | –
TLGWLD [AβC6-42] | 0.068% | 0.007% | 307 | –
TLHWFE [AβC6-26] | 0.143% | 0.014% | 647 | –
TLKWLN [AβC6-10] | 2.434% | 0.243% | 11,016 | –
TLLIRW [AβC6-8] | 2.902% | 0.290% | 13,135 | –
TLSVFD [AβC6-57] | 0.039% | 0.004% | 176 | –
TLSWFN [AβC6-59] | 0.031% | 0.003% | 141 | –
TLSWYD [AβC6-47] | 0.053% | 0.005% | 239 | –
TLWVFD [AβC6-37] | 0.078% | 0.008% | 355 | –
TPALFD [AβC6-68] | 0.022% | 0.002% | 101 | –
TPALVD [AβC6-53] | 0.046% | 0.005% | 208 | –
TPARFD [AβC6-78] | 0.012% | 0.001% | 55 | –
TPAWFD [AβC6-2] | 24.555% | 2.453% | 111,132 | –
TPAWLD [AβC6-79] | 0.012% | 0.001% | 55 | –
TPAWSD [AβC6-69] | 0.019% | 0.002% | 86 | –
TPCWFD [AβC6-46] | 0.056% | 0.006% | 252 | –
TPGLVD [AβC6-58] | 0.031% | 0.003% | 142 | –
TPGWFD [AβC6-55] | 0.040% | 0.004% | 180 | –
TPIVFD [AβC6-36] | 0.085% | 0.008% | 384 | –
TPLWFN [AβC6-40] | 0.070% | 0.007% | 316 | –
TPPWFD [AβC6-44] | 0.064% | 0.006% | 289 | –

Substance | Reads/Total hexapeptide reads (%) (Table 4) | Reads/Total peptide reads (%) (Table 4) | Number of reads [5] | other results
TPSWFD [AβC6-65] | 0.023% | 0.002% | 105 | –
TPVLVD [AβC6-48] | 0.052% | 0.005% | 236 | –
TPVWFD [AβC6-1] | 29.151% | 2.912% | 131,935 | –
TPVWLD [AβC6-80] | 0.012% | 0.001% | 55 | –
TSVEYE [AβC6-41] | 0.068% | 0.007% | 307 | –
TVTWFD [AβC6-6] | 3.778% | 0.377% | 17,100 | –
cyclo-SHSPT [AβC5-387] | – | – | – | Reads/Total SASPT-like reads (%) (Table 2): 0.337%; Reads/Total pentapeptide reads (%) (Table 2): 0.002%; Reads/Total peptide reads (%) (Table 2): 0.002%; Number of reads [6]: 89
cyclo-SICPT [AβC5-216] | – | – | – | Reads/Total SASPT-like reads (%) (Table 2): 1.957%; Reads/Total pentapeptide reads (%) (Table 2): 0.013%; Reads/Total peptide reads (%) (Table 2): 0.011%; Number of reads [6]: 516
cyclo-SITPT [AβC5-380] | – | – | – | Reads/Total SASPT-like reads (%) (Table 2): 0.356%; Reads/Total pentapeptide reads (%) (Table 2): 0.002%; Reads/Total peptide reads (%) (Table 2): 0.002%; Number of reads [6]: 94
cyclo-TDQR (cyclic) [AβC4B-9] | – | – | – | Normalized read number (%): 2.09%
cyclo-TLGR (cyclic) [AβC4B-86] | – | – | – | Normalized read number (%): 0.1697%
cyclo-TLIR (cyclic) [AβC4B-41] | – | – | – | Normalized read number (%): 0.775%
cyclo-TLWR (cyclic) [AβC4B-80] | – | – | – | Normalized read number (%): 0.2568%
cyclo-TRGR [AβC4-34] | – | – | – | Normalized read number (%): 0.3047%
cyclo-TRRR (cyclic) [AβC4-41] | – | – | – | Normalized read number (%): 0.2467%
cyclo-TTCR (cyclic) [AβC4-9] | – | – | – | Normalized read number (%): 1.248%
cyclo-TTGR [AβC4-35] | – | – | – | Normalized read number (%): 0.295%
cyclo-TTRR (cyclic) [AβC4-11] | – | – | – | Normalized read number (%): 1.2%
cyclo-TTSR (cyclic) [AβC4-31] | – | – | – | Normalized read number (%): 0.3241%
